Data from the supplement of paper PMC9233669.
Fewer inactive variants are shown than the library holds.

What was measured:
[1] = tested on: biotinyl-Phe-oxazolone; experiment: self-aminoacylation, catalytic enhancement (BFO) (fold over background); higher = more active; k-Seq, kA / k0A0; sequences stand for … in GGGAAUGGAUCCACAUCUACGAAUUC…UUCACUGCAGACUUGACGAAGCUG
In short: (§1)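 Mutagenized RNA pools with a 21-nt variable region (0.43 μM) reacted with each biotinyl-aminoacyl-oxazolone at 2–1250 μM. Reactions ran in 50 μL HEPES/NaCl/KCl/MgCl2/CaCl2 buffer with 5% acetonitrile, pH 6.9–7.0, for 90 minutes at room temperature. Streptavidin-captured RNA was quantified by triplicate qPCR and Illumina sequencing, and per-sequence fraction reacted was fit to a pseudo-first-order model with 1000 bootstraps. Catalytic enhancement is median kA divided by the uncatalyzed rate, the low-activity peak of a bimodal Gaussian fit.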

[2] = tested on: biotinyl-Ile-oxazolone; experiment: self-aminoacylation, catalytic enhancement (BIO) (fold over background); higher = more active; k-Seq, kA / k0A0; sequences stand for … in GGGAAUGGAUCCACAUCUACGAAUUC…UUCACUGCAGACUUGACGAAGCUG
In short: as §1

[3] = tested on: biotinyl-Met-oxazolone; experiment: self-aminoacylation, catalytic enhancement (BMO) (fold over background); higher = more active; k-Seq, kA / k0A0; sequences stand for … in GGGAAUGGAUCCACAUCUACGAAUUC…UUCACUGCAGACUUGACGAAGCUG
In short: as §1

[4] = tested on: biotinyl-Val-oxazolone; experiment: self-aminoacylation, catalytic enhancement (BVO) (fold over background); higher = more active; k-Seq, kA / k0A0; sequences stand for … in GGGAAUGGAUCCACAUCUACGAAUUC…UUCACUGCAGACUUGACGAAGCUG
In short: as §1

[5] = tested on: biotinyl-Leu-oxazolone; experiment: self-aminoacylation, catalytic enhancement (BLO) (fold over background); higher = more active; k-Seq, kA / k0A0; sequences stand for … in GGGAAUGGAUCCACAUCUACGAAUUC…UUCACUGCAGACUUGACGAAGCUG
In short: as §1

[6] = tested on: biotinyl-Trp-oxazolone; experiment: self-aminoacylation, catalytic enhancement (BWO) (fold over background); higher = more active; k-Seq, kA / k0A0; sequences stand for … in GGGAAUGGAUCCACAUCUACGAAUUC…UUCACUGCAGACUUGACGAAGCUG
In short: as §1

| Sequence | self-aminoacylation [1] | self-aminoacylation [2] | self-aminoacylation [3] | self-aminoacylation [4] | self-aminoacylation [5] | self-aminoacylation [6] |
| --- | --- | --- | --- | --- | --- | --- |
| AUUUACCUAGGUCACCGGGUG [Fam2.2 aminoacylation ribozyme variant] | 26.5 | 3.61 | 4.23 | 3.08 | 6.09 | 3.83 |
| AUUCACCAAGGUCUUCGGGUG [Fam2.2 aminoacylation ribozyme variant] | 37.2 | 4.41 | 5.94 | 4.41 | 6.3 | 4.45 |
| GCACUUCAAACAAUCGGUCUG [Fam1A.1 aminoacylation ribozyme variant] | 156 | 2.33 | 2.32 | 2.16 | 4.11 | 62.3 |
| AUUACCCGGGCCAUCGAGUGA [Fam2.1 aminoacylation ribozyme variant] | 41.7 | 4.18 | 8.49 | 5.47 | 10.1 | 8.23 |
| AUUACCCUGGUCAUUGAGUGU [Fam2.1 aminoacylation ribozyme variant] | 18.9 | 2.42 | 4.42 | 2.78 | 4.72 | 5.6 |
| AAGUGUGCUACUAGUCGCAAG [Fam3.1 aminoacylation ribozyme variant] | 1.71 | 1.29 | 1.33 | 1.04 | 0.938 | 1.41 |
| AAGUAUGCUAAUAUUCGCAAG [Fam3.1 aminoacylation ribozyme variant] | 1.45 | 1.95 | 1.76 | 1.46 | 2.04 | 2.45 |
| AUUCACCUAGGUUAUUGGGUG [Fam2.2 aminoacylation ribozyme variant] | 45 | 3.48 | 5.84 | 3.15 | 7.19 | 6.1 |
| AUGUGUGCUAAUAGUCGCAAG [Fam3.1 aminoacylation ribozyme variant] | 3.53 | 1.57 | 1.2 | 1.37 | 1.36 | 1.95 |
| CUACUUCAAAAAGUCGGUCUG [Fam1A.1 aminoacylation ribozyme variant] | 0.598 | 0.876 | 0.856 | 0.773 | 0.779 | 0.579 |
| CCGCACUUCAAGCGAUCGGUC [Fam1B.1 aminoacylation ribozyme variant] | 2.22 | 1.34 | 1.53 | 1.8 | 1.3 | 4.81 |
| ACACACUUAAAGCAAUCGGUC [Fam1B.1 aminoacylation ribozyme variant] | 1.23 | 1.08 | 0.917 | 1.11 | 0.923 | 0.971 |
| AUUAUCCCGGUCAUCGAGUGA [Fam2.1 aminoacylation ribozyme variant] | 61.2 | 4.32 | 8.46 | 4.35 | 10.6 | 11 |
| AAGUUCGCUACUAGUCGCAAG [Fam3.1 aminoacylation ribozyme variant] | 2.28 | 2.08 | 1.67 | 1.79 | 1.5 | 1.34 |
| CCACACUUCUAGCAAUCAGUC [Fam1B.1 aminoacylation ribozyme variant] | 1.14 | 0.797 | 0.648 | 0.721 | 0.622 | 0.459 |
| CUCUUUCAAACAAUCGGUCUG [Fam1A.1 aminoacylation ribozyme variant] | 14.2 | 0.972 | 1.13 | 0.908 | 1.21 | 9.95 |
| AUUAACCUGGUCAUCGAGUGA [Fam2.1 aminoacylation ribozyme variant] | 8.46 | 3.97 | 7.3 | 4.02 | 7.64 | 8.57 |
| AUUACCCUCCUCAUCGAGUGA [Fam2.1 aminoacylation ribozyme variant] | 15 | 1.81 | 3.98 | 2.08 | 3.99 | 4.74 |
| AUUCAACUAGGUCAUCGCGUG [Fam2.2 aminoacylation ribozyme variant] | 65.2 | 5.91 | 9.12 | 5.81 | 13.6 | 9.5 |
| AAGUUUGCAAGUAGUCGCAAG [Fam3.1 aminoacylation ribozyme variant] | 1.14 | 0.95 | 1.06 | 0.914 | 0.731 | 1.06 |
| AUUCACUAAGGUCAUCGGGUG [Fam2.2 aminoacylation ribozyme variant] | 37.7 | 3.57 | 5.33 | 3.66 | 6.72 | 5.99 |

| Sequence | self-aminoacylation [1] | self-aminoacylation [2] | self-aminoacylation [3] | self-aminoacylation [4] | self-aminoacylation [5] | self-aminoacylation [6] |
| --- | --- | --- | --- | --- | --- | --- |
| AAGUUGGCUAAGAGUCGCAAG [Fam3.1 aminoacylation ribozyme variant] | 1.91 | 2.02 | 1.68 | 1.53 | 1.98 | 2.13 |
| AUUCACCUAGGUCUUCUGGUG [Fam2.2 aminoacylation ribozyme variant] | 58.1 | 3.9 | 6.75 | 3.86 | 9.28 | 5.92 |
| AUUCACCUAGGUUAUCCGGUG [Fam2.2 aminoacylation ribozyme variant] | 42.3 | 3.8 | 7.05 | 3.77 | 8.66 | 5.66 |
| AUUACUCUGGUCAUCUAGUGA [Fam2.1 aminoacylation ribozyme variant] | 42.8 | 4.55 | 9.64 | 4.34 | 9.74 | 11.4 |
| CUACCUCAAACAAUCGGUCUU [Fam1A.1 aminoacylation ribozyme variant] | 1.34 | 0.996 | 0.623 | 0.865 | 0.784 | 1.65 |
| AUUCAUCUACGUCAUCGGGUG [Fam2.2 aminoacylation ribozyme variant] | 53 | 3.69 | 6.12 | 3.82 | 8.74 | 7.17 |
| AUUCACCUAGGCCAUAGGGUG [Fam2.2 aminoacylation ribozyme variant] | 4.48 | 2.09 | 2.45 | 2.11 | 2.54 | 2.58 |
| AUUACCCUGGUCAGCCAGUGA [Fam2.1 aminoacylation ribozyme variant] | 46.3 | 5.41 | 9.13 | 5.21 | 10.6 | 11 |
| UUACUUCAAACAAUCGAUCUG [Fam1A.1 aminoacylation ribozyme variant] | 1.8 | 0.852 | 0.711 | 0.719 | 0.824 | 0.866 |
| CCACACCUCAAGCAAUCGAUC [Fam1B.1 aminoacylation ribozyme variant] | 0.758 | 0.643 | 0.442 | 0.76 | 0.553 | 0.298 |
| AUUCACCUAGGCCAUCGUGUG [Fam2.2 aminoacylation ribozyme variant] | 2.6 | 0.998 | 0.898 | 0.966 | 0.946 | 0.88 |
| AAGUAUGUUAAUAGUCGCAAG [Fam3.1 aminoacylation ribozyme variant] | 1.49 | 1.44 | 1.4 | 1.24 | 1.44 | 1.38 |
| CAACACUUCAAGCAAUCGCUC [Fam1B.1 aminoacylation ribozyme variant] | 0.965 | 1.85 | 1.19 | 1.57 | 2.04 | 1.54 |
| AAGAUUGCUAAUGGUCGCAAG [Fam3.1 aminoacylation ribozyme variant] | 1.11 | 1.21 | 1.51 | 1.14 | 1.07 | 1.06 |
| CCACGCUUCAAGCAAUCGGAC [Fam1B.1 aminoacylation ribozyme variant] | 1.87 | 0.794 | 0.64 | 0.666 | 0.696 | 1.24 |
| UUUCACCUAAGUCAUCGGGUG [Fam2.2 aminoacylation ribozyme variant] | 51.6 | 5.08 | 7.38 | 5.74 | 9.35 | 8.11 |
| AUUCACCUAGGUAAUCGGGUG [Fam2.2 aminoacylation ribozyme variant] | 17.5 | 1.85 | 2.8 | 1.85 | 3.64 | 2.81 |
| AUUCUCCAAGGUCAUCGGGUG [Fam2.2 aminoacylation ribozyme variant] | 102 | 6.8 | 11.8 | 7.99 | 15.6 | 10.7 |
| CGAUUUCAAACAAUCGGUCUG [Fam1A.1 aminoacylation ribozyme variant] | 16.4 | 1.74 | 1.46 | 1.66 | 1.63 | 5.97 |
| GUACUUCAAACAACCGGUCUG [Fam1A.1 aminoacylation ribozyme variant] | 4.78 | 1.67 | 1.21 | 1.54 | 1.23 | 2.02 |
| CCACACUUCAAACAAGCGGUC [Fam1B.1 aminoacylation ribozyme variant] | 0.971 | 0.922 | 0.68 | 0.746 | 0.728 | 0.603 |
